Source: patent US20240327530A1 (ICHNOS SCIENCES, published 2024)
Blank lines part the entries; values can stand above or below the binder they belong to.

What was measured:
[1] = molecular target: T1, Human IL-1RAP, membrane-bound on human cells (HaCaT, dermal fibroblasts, neutrophils, PBMC, whole blood) (human, UniProt Q9NPH3 21-570); assay: flow cytometry on human neutrophils, nonlinear sigmoidal regression
T1 construct: Endogenous protein on cells
T1 sequence: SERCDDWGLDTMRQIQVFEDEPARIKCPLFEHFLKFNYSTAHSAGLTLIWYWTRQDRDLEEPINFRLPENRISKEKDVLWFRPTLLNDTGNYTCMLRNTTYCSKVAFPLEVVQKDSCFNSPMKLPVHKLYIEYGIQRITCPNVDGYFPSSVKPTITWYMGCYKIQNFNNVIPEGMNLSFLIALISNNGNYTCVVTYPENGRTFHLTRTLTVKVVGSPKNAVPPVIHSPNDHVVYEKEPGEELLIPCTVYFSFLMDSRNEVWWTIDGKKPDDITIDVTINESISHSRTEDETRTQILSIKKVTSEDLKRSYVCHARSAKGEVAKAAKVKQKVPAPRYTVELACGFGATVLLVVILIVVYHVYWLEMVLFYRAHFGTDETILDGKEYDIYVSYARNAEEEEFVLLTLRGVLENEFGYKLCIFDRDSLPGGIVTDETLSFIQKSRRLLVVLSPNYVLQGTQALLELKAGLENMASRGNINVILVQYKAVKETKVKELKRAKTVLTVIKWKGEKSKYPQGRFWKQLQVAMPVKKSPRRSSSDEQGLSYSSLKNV
Method: In brief, cells were harvested, counted, and plated at 50,000 cells/well in a 96-well round-bottom plate. The plate was centrifuged at 350 g for 3 minutes and the cells were resuspended in 50 μl of FACS® buffer (PBS (1×)+2.5% FCS+2 mM EDTA+0.05% NaN₃) containing various concentrations (ranging from 50 to 0.00003 μg/ml) of either anti-human IL-1RAP_candidate_1 or Isotype control_5 antibodies. Stained cells were incubated for 30 minutes at 4° C., washed twice with FACS® buffer at 350 g for 3 min and resuspended in […] of a monoclonal anti-human IgG PE-Cyanine7 secondary antibody (Biolegend, 409316) diluted 1/200 in FACS® buffer. Cells were then washed twice and resuspended in 200 μl of FACS® buffer containing SYTOX® Green dead cell stain (THERMO FISHER […]®, S34860) and samples were acquired on a CYTOFLEX® instruments (Beckman Coulter). The cells were gated based on size on FSC vs SSC and analyzed for PE-Cyanine7-geometric mean (geomean) fluorescence intensity using FLOWJO® software. Finally, relative geomean fluorescence intensity was calculated by subtracting fluorescence of anti-human IL-1RAP_candidate_1 per fluorescence of Isotype control_5. As depicted in FIGS. 6A, 6B, 6C, 6D, and 6E, anti-human IL-1RAP_candidate_1 antibody recognizes membrane-bound IL-1RAP expressed on HaCaT cell line and all primary cells. Multiple independent experiments were performed using multiple donors. […]

[2] = molecular target: T1, Human IL-1RAP, membrane-bound on human …; assay: flow cytometry on normal human fibroblasts, nonlinear sigmoidal regression
Method: Bound antibodies were detected with a monoclonal anti-human IgG PE-Cyanine7 secondary antibody. The graphs show the nonlinear sigmoidal regression binding curves (Relative Geometric Mean Fluorescence Intensity) for each cell lines. Each data point is a measurement for a given cell line. Multiple independent experiments were performed across several donors (HaCaT and HaCaT IL-1RAP KO: 4 and 3 independent experiments; Human Dermal Fibroblasts: 2 independent experiments—total of 5 donors; Human Neutrophil: 2 experiments—total of 6 donors; Cyno Dermal Fibroblasts: 2 independent experiment—total of 4 donors).
In brief, cells were harvested, counted, and plated at 50,000 cells/well in a 96-well round-bottom plate. The plate was centrifuged at 350 g for 3 minutes and the cells were resuspended in 50 μl of FACS® buffer (PBS (1×)+2.5% FCS+2 mM EDTA+0.05% NaN₃) containing various concentrations (ranging from 50 to 0.00003 μg/ml) of either anti-human IL-1RAP_candidate_1 or Isotype control_5 antibodies. […] The cells were gated based on size on FSC vs SSC and analyzed for PE-Cyanine7-geometric mean (geomean) fluorescence intensity using FLOWJO® software. Finally, relative geomean fluorescence intensity was calculated by subtracting fluorescence of anti-human IL-1RAP_candidate_1 per fluorescence of Isotype control_5. […]

[3] = molecular target: T2, Mouse IL-1RAP, membrane-bound on NIH-3T3 cells (mouse, UniProt Q61730 21-570); assay: flow cytometry on NIH-3T3 cells, PE-Cyanine7 secondary antibody, relative mean fluorescence intensity (isotype subtracted); upper of two curves
T2 construct: Endogenous protein on cells
T2 sequence (looked up): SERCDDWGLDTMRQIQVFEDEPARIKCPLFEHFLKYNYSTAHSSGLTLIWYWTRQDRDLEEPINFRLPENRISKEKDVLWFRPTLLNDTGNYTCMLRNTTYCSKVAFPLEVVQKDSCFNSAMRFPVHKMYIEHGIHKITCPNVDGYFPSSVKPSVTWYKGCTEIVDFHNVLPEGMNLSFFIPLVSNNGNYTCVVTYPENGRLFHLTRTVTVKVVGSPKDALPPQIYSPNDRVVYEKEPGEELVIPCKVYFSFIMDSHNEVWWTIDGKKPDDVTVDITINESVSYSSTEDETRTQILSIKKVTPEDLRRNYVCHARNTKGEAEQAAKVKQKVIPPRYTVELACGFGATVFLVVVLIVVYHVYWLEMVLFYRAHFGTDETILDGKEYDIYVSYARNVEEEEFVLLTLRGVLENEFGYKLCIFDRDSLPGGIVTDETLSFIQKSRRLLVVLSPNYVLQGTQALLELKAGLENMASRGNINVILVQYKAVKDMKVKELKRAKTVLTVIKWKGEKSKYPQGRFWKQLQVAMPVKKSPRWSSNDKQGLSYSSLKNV
Method: In brief, cells were harvested, counted, and plated at 50′000 cells/well in a 96-well round-bottom plate. The plate was centrifuged at 350 g for 3 minutes and the cells were resuspended in […] of FACS® buffer (PBS (1×)+2.5% FCS+2 mM EDTA+0.05% NaN₃) containing various concentrations (ranging from 20 to 0.0001 μg/ml) of either anti-mouse IL-1RAP_candidate_1 or Isotype control_2 antibodies. Stained cells were incubated for 30 minutes at 4° C., washed twice with FACS® buffer at 350 g for 3 min and resuspended in 100 μl of a monoclonal anti-mouse IgG PE-Cyanine7 secondary antibody (Biolegend, 407114) diluted 1/200 in FACS® buffer. Cells were then washed twice, and resuspended in 200 μl of FACS® buffer containing SYTOX® Green dead cell stain (THERMO FISHER […]®, S34860) and samples were acquired on a CYTOFLEX® instruments (Beckman Coulter). The cells were gated based on size on FSC vs SSC and analysed for PE-Cyanine7-geometric mean (geomean) fluorescence intensity using FLOWJO® software. Finally, relative geomean fluorescence intensity was calculated by subtracting fluorescence of anti-mouse IL-1RAP_candidate_1 per fluorescence of Isotype control_2. As depicted in FIG. 11, anti-mouse IL-1RAP_candidate_1 antibody recognizes membrane-bound IL-1RAP expressed on NIH-3T3 cell line. […] Each data point is a measurement for a given cell line. […]

Kd [1]: 1.67 nM
Kd [2]: 3.1 nM
B1: Anti-IL-1RAP-C8-RecC-ES-IgG1LALA (antibody, V domains shown)
VH: QVQLVQSGAEVKKPGSSVKVSCKASGSPAEPYAIQWVRQAPGQGLEWMGYIIPSLGGYDYAQKFQGRVTITADESTSTAYMELSSLRSEDTAVYYCARGQTLYESGRQFDIWGQGTLVTVSS
VL: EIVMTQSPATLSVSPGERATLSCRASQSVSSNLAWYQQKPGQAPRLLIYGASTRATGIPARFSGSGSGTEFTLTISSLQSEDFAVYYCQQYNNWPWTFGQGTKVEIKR
notes: also called ISB 880-C8-recC-ES

EC50 (read off the curve) [3]: ~0.01 µg/mL
B2: Anti-IL-1RAP-C3-A3 mmIgG2a LALA (antibody, V domains shown)
VH: EVQLLESGGGLVQPGGSLRLSCAASGFIFSHYGMSWVRQAPGKGLEWVSAISYDGEGTLYADSVKGRFTISRDNSKNTLYLQMNSLRAEDTAVYYCARFRYYTAFDYWGQGTLVTVSS
VL: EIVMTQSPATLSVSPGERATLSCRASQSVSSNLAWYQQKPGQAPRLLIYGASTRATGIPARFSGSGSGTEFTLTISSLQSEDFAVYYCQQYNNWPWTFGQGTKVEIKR
notes: also called anti-IL-1RAP-C3-A3 mouse IgG2a LALA
